Article PMC10281000 (Chembiochem : a European journal of chemical biology, 2021)

B1: PA0810, L-2-haloacid dehalogenase from Pseudomonas aeruginosa PAO1 (enzyme)
chain: MRAILFDVFGTLVDWRSSLIEQFQALERELGGTLPCVELTDRWRQQYKPAMDRVRNGQAPWQHLDQLHRQSLEALAGEFGLALDEALLQRITGFWHRLRPWPDTLAGMHALKADYWLAALSNGNTALMLDVARHAGLPWDMLLCADLFGHYKPDPQVYLGACRLLDLPPQEVMLCAAHNYDLKAARALGLKTAFIARPLEYGPGQSQDLAAEQDWDLIASDLLDLHRQLAASA

Key:
[1] = test system: Bpro0530; details: 100 mM Tris-SO4, pH 8.5, 30 °C; defluorination
[2] = target: ST2570 (Sulfurisphaera tokodaii, UniProt Q96XE7); details: 100 mM Tris-SO4, pH 8.5, 30 °C; defluorination
[3] = target: Rha0230 (Rhodococcus jostii, UniProt Q0SK70); details: 100 mM Tris-SO4, pH 8.5, 30 °C; defluorination
[4] = test system: O=C(O)CCl; test: purified protein; details: pH 8.5; 30.0 °C
[5] = target: the molecule itself; test: crystal structure

Molecule | Km [4] [mM] | kcat/Km [4] [M⁻¹ s⁻¹] | also measured
O=C(O)CF [fluoroacetate] | – | – | Km [1]: 20.3 ± 0.3 mM; Km [2]: 2.4 ± 0.7 mM; Km [3]: 18 ± 3 mM
Rha0230 (Rhodococcus jostii RHA1) | 18 ± 2 | 37 ± 6 | –
Rha0230 (Rhodococcus jostii RHA1; Y61F) | 14 ± 2 | 73 ± 13 | –
ST2570 (Sulfurisphaera tokodaii str. 7) | 0.00353 ± 3e-05 | 73000 ± 1100 | –
B1 | – | – | binding result [5]: binds
